Test results from patent publication US20240117061A1.

Key:
[1] = molecular target: recombinant cynomolgus monkey BCMA-huFc (cynomolgus monkey; human); assay: ELISA, hybridoma supernatant, dilution, immobilized cynoBCMA-huFc
[2] = molecular target: recombinant cynomolgus monkey BCMA-huFc (cynomolgus monkey; human); assay: ELISA, hybridoma supernatant, dilution 1:9, immobilized cynoBCMA-huFc
[3] = molecular target: recombinant cynomolgus monkey BCMA-huFc (cynomolgus monkey; human); assay: ELISA, hybridoma supernatant, dilution 1:27, immobilized cynoBCMA-huFc
[4] = molecular target: recombinant cynomolgus monkey BCMA-huFc (cynomolgus monkey; human); assay: ELISA, hybridoma supernatant, dilution 1:81, immobilized cynoBCMA-huFc
[5] = molecular target: recombinant cynomolgus monkey BCMA-huFc (cynomolgus monkey; human); assay: ELISA, hybridoma supernatant, dilution 1:243, immobilized cynoBCMA-huFc
[6] = molecular target: recombinant cynomolgus monkey BCMA-huFc (cynomolgus monkey; human); assay: ELISA, hybridoma supernatant, dilution 1:729, immobilized cynoBCMA-huFc
[7] = molecular target: recombinant cynomolgus monkey BCMA-huFc (cynomolgus monkey; human); assay: ELISA, hybridoma supernatant, stock solution, immobilized cynoBCMA-huFc
[8] = molecular target: recombinant cynomolgus monkey BCMA-huFc (cynomolgus monkey; human); assay: ELISA, hybridoma supernatant, dilution 1:2187, immobilized cynoBCMA-huFc

Sequence of recombinant cynomolgus monkey BCMA-huFc (cynomolgus monkey; human) (chain, as listed by the source limits assumed): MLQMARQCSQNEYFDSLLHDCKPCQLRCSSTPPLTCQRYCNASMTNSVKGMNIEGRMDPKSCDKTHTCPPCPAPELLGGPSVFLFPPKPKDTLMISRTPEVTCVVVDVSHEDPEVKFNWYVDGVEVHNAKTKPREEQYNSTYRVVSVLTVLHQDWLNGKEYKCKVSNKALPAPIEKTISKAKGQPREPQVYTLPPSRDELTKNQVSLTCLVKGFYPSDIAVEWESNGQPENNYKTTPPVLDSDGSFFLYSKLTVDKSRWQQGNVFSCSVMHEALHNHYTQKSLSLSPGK

ELISA result [1]: 0.31 | ELISA result [2]: 0.18 | ELISA result [3]: 0.15 | ELISA result [4]: 0.14 | ELISA result [5]: 0.15 | ELISA result [6]: 0.13 | ELISA result [7]: 0.75 | ELISA result [8]: 0.12
B1: mouse monoclonal antibody 202E11H10E3 (antibody, V domains shown)
VH: QVQLQQSDAELVKPGTSVKISCKVSGYTFTDHTIHWMKQRPEQGLEWIGYIYPRNGNTKYNEKFKGKATLTADKSSSTAYMHLNSLTSEDSAVYFCARYDYDGYFDVWGTGTTVTVSS
VL: DVVMTQTPLSLPVSLGDQASISCRSSQSHVHSDGHTYLHWYLQKPGQSPELLIYKVSNRFSGVPDRFSGSGSGTDFTLKISRVEAEDLGVYFCSQNTHFPWTFGGGTKLEIK
